Test results as given in PMC7641752, “A hand-off of DNA between archaeal polymerases allows high-fidelity replication to resume at a discrete intermediate three bases past 8-oxoguanine”.

T1: PCNA123 (Saccharolobus solfataricus) (UniProt P57766)
T1 sequence 1: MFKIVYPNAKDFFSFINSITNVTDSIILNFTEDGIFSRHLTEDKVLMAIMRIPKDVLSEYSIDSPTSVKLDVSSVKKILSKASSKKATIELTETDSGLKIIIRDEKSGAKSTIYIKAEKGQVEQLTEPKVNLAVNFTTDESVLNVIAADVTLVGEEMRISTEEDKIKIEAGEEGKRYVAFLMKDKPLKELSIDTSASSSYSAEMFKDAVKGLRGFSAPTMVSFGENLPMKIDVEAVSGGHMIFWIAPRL
T1 sequence 2: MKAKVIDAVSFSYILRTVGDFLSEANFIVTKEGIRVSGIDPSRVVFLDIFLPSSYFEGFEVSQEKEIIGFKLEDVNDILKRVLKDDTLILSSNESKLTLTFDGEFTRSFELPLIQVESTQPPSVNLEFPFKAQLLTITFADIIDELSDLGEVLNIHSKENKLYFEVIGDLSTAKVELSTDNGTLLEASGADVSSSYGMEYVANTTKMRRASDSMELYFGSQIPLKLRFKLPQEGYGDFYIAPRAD
T1 sequence 3: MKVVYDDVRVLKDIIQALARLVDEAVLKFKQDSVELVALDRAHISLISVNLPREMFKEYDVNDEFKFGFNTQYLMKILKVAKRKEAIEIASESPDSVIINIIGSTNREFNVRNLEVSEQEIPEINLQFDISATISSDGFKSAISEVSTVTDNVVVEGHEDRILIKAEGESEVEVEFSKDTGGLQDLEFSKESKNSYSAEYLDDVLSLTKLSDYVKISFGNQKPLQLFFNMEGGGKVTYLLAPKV

T2: PolY (Y-family TLS DNA polymerase) (Saccharolobus/Sulfolobus solfataricus …, UniProt Q97W02 1-352)
T2 sequence: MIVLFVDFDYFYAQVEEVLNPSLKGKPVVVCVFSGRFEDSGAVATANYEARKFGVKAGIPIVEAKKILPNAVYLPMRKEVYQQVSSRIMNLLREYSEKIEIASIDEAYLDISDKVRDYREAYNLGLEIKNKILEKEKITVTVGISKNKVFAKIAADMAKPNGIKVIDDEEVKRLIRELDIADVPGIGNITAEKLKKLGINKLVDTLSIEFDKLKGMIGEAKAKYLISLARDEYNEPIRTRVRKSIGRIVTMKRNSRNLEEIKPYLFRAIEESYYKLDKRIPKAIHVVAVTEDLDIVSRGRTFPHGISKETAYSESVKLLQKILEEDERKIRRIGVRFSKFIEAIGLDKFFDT


Tests used:
[1] = biological target: T1, PCNA123 (Saccharolobus solfataricus)
[2] = biological target: T1, PCNA123 (Saccharolobus solfataricus); remark: listed apart in the source
[3] = biological target: T2, PolY (Y-family TLS DNA polymerase); test: fluorescence anisotropy; Fluorescence anisotropy, 4 nM DNA, room temperature, 90 s incubation, Hill fit, mean of three titrations; binding buffer not stated in the material (as in ref 38); conditions: protein: recombinant, label: 5'-FAM on primer (strand 1), primer-template
[4] = 5' overhang 30 nt on template (strand 2)
[5] = 5' overhang 26 nt on template (strand 2)

Binder	Kd [3, 4] [nM]	Kd [3, 5] [nM]	further results
PolB1 (enzyme) MTKQLTLFDIPSSKPAKSEQNTQQSQQSAPVEEKKVVRREWLEEAQENKIYFLLQVDYDGKKGKAVCKLFDKETQKIYALYDNTGHKPYFLVDLEPDKVGKIPKIVRDPSFDHIETVSKIDPYTWNKFKLTKIVVRDPLAVRRLRNDVPKAYEAHIKYFNNYMYDIGLIPGMPYVVKNGKLESVYLSLDEKDVEEIKKAFADSDEMTRQMAVDWLPIFETEIPKIKRVAIDIEVYTPVKGRIPDSQKAEFPIISIALAGSDGLKKVLVLNRNDVNEGSVKLDGISVERFNTEYELLGRFFDILLEYPIVLTFNGDDFDLPYIYFRALKLGYFPEEIPIDVAGKDEAKYLAGLHIDLYKFFFNKAVRNYAFEGKYNEYNLDAVAKALLGTSKVKVDTLISFLDVEKLIEYNFRDAEITLQLTTFNNDLTMKLIVLFSRISRLGIEELTRTEISTWVKNLYYWEHRKRNWLIPLKEEILAKSSNIRTSALIKGKGYKGAVVIDPPAGIFFNITVLDFASLYPSIIRTWNLSYETVDIQQCKKPYEVKDETGEVLHIVCMDRPGITAVITGLLRDFRVKIYKKKAKNPNNSEEQKLLYDVVQRAMKVFINATYGVFGAETFPLYAPAVAESVTALGRYVITSTVKKAREEGLTVLYGDTDSLFLLNPPKNSLENIIKWVKTTFNLDLEVDKTYKFVAFSGLKKNYFGVYQDGKVDIKGMLVKKRNTPEFVKKVFNEVKELMISINSPNDVKEIKRKIVDVVKGSYEKLKNKGYNLDELAFKVMLSKPLDAYKKNTPQHVKAALQLRPFGVNVLPRDIIYYVKVRSKDGVKPVQLAKVTEIDAEKYLEALRSTFEQILRAFGVSWDEIAATMSIDSFFSYPSKGNS			observed rate constant (kobs) of extension from primer p26 (+3), Scheme vi: PolB1 added at initiation to DNA pre-loaded with PCNA123 and RFC; rapid quench, 40°C [1]: 2.1 s⁻¹
PolY (enzyme) MIVLFVDFDYFYAQVEEVLNPSLKGKPVVVCVFSGRFEDSGAVATANYEARKFGVKAGIPIVEAKKILPNAVYLPMRKEVYQQVSSRIMNLLREYSEKIEIASIDEAYLDISDKVRDYREAYNLGLEIKNKILEKEKITVTVGISKNKVFAKIAADMAKPNGIKVIDDEEVKRLIRELDIADVPGIGNITAEKLKKLGINKLVDTLSIEFDKLKGMIGEAKAKYLISLARDEYNEPIRTRVRKSIGRIVTMKRNSRNLEEIKPYLFRAIEESYYKLDKRIPKAIHVVAVTEDLDIVSRGRTFPHGISKETAYSESVKLLQKILEEDERKIRRIGVRFSKFIEAIGLDKFFDT			observed rate constant (kobs) of 8-oxoG lesion bypass from primer p22 (-1), Scheme ii: PolY added at initiation to DNA pre-loaded with PCNA123 and RFC; rapid quench, 40°C [2]: 0.22 s⁻¹
p22-FAM/t52Und (-1, undamaged) (dsDNA) DNA 1: GCGAGGCGAGCGCGAGCGATAC DNA 2: CGTCCAACATGAAGCTTGCACTCGATCGCGGTATCGCTCGCGCTCGCCTCGC	16.1 ± 0.4		
p26-FAM/t528 (+3, 8-oxoG) (dsDNA, 8-oxoguanine at position 30 from 5' of strand 2 (23 from 3' end), written as G) DNA 1: GCGAGGCGAGCGCGAGCGATACCGCG DNA 2: CGTCCAACATGAAGCTTGCACTCGATCGCGGTATCGCTCGCGCTCGCCTCGC		13 ± 0.4	
p26-FAM/t52Und (+3, undamaged) (dsDNA) DNA 1: GCGAGGCGAGCGCGAGCGATACCGCG DNA 2: CGTCCAACATGAAGCTTGCACTCGATCGCGGTATCGCTCGCGCTCGCCTCGC		31.2 ± 3.5	
p22-FAM/t528 (-1, 8-oxoG) (dsDNA, 8-oxoguanine at position 30 from 5' of strand 2 (23 from 3' end), written as G) DNA 1: GCGAGGCGAGCGCGAGCGATAC DNA 2: CGTCCAACATGAAGCTTGCACTCGATCGCGGTATCGCTCGCGCTCGCCTCGC	25.9 ± 8.2		
